According to article PMC11379722:

What was measured:
[1] = target: S protein of the SARS-CoV-2 Omicron (B.1.1.529) strain, his-tagged (SARS-CoV-2, Omicron (B.1.1.529) strain) (UniProt P0DTC2); assay: BLI
[2] = target: RBD of the SARS-CoV-2 Delta (B.1.617.2) strain (SARS-CoV-2, Delta (B.1.617.2) strain) (UniProt P0DTC2); assay: ELISA

Row | Substance | fold increase in binding affinity (BLI) against wild-type CR3022 [1] [fold] | EC50 [2] [nM] | fold lower ELISA EC50 than wild-type CR3022 [2] [fold]
1 | CR3022 SH100D+SH103Y+IL34W triple mutant (IgG1 format) (antibody) | 6.1 | – | –
2 | CR3022 SH100D+SH103Y+SL33R triple mutant (IgG1 format) (antibody) | 4.1 | 0.06 | 3.4
